We go through 17 molecules from US20190002564A1 (Hoffmann-La Roche, published 2019).

Numbering of substitutions follows the chain as printed. Names may count otherwise.

B1: M4-3(A7)/ML2(E10) IgG (antibody, V domains shown)
VH: QVQLQESGPGLVKPSQTLSLTCTVSGGSITDGYYWNWIRQHPGKGLEWIGYITFDGRNNYNPSLKSRVTISRDTSKNQFSLKLSSVTAADTAVYYCADFDYWGQGTLVTVSS
VL: DIQMTQSPSSLSASVGDRVTITCRASYGIRGYLNWYQQKPGKAPKLLIYYTSSLHSGVPSRFSGSGSGTDFTLTISSLQPEDFATYHCQQYSKLPWTFGQGTKVEIK
notes: Human IgG1 format, purified from mammalian production
B2: M4-3(C1)/ML2(G3) IgG (antibody, V domains shown)
VH: B1 VH with D31S, R57S
VL: DIQMTQSPSSLSASVGDRVTITCRASQGIRNYLNWYQQKPGKAPKLLIYYTSSLHSGVPSRFSGSGSGTDYTLTISSLQPEDFATYYCQQYSALPWTFGQGTKVEIKR
notes: Human IgG1 format, produced in HEK293-EBNA
B3: M4-3(C1)/ML2(C5) IgG (antibody, V domains shown)
VH: B1 VH with D31S, R57S
VL: B1 VL with Y27R, G31E, S52G, H87Y, K93E
notes: as for B2
B4: M4-3/ML2(C5) IgG (antibody, V domains shown)
VH: B1 VH with D31S, F54Y, R57S
VL: B1 VL with Y27R, G31E, S52G, H87Y, K93E
notes: as for B1
B5: M4-3/ML2(G3) IgG (antibody, V domains shown)
VH: B1 VH with D31S, F54Y, R57S
VL: B1 VL with Y27Q, G31N, F71Y, H87Y, K93A
notes: as for B1
B6: M4-3/ML2(E10/G3) IgG (antibody, V domains shown)
VH: B1 VH with D31S, F54Y, R57S
VL: B1 VL with K93A
notes: as for B1
B7: M4-3(A7)/ML2(C5) IgG (antibody, V domains shown)
VH: B1 VH
VL: B1 VL with Y27R, G31E, S52G, H87Y, K93E
notes: as for B1
B8: M4-3(A7)/ML2(G3) IgG (antibody, V domains shown)
VH: B1 VH
VL: B1 VL with Y27Q, G31N, F71Y, H87Y, K93A
notes: as for B1
B9: M4-3(C1)/ML2(E10) IgG (antibody, V domains shown)
VH: B1 VH with D31S, R57S
VL: B1 VL
notes: as for B2
B10: M4-3(B8)/ML2 IgG (antibody, V domains shown)
VH: B1 VH with D31S
VL: B1 VL with Y27Q, G31N, H87Y
notes: as for B1
B11: M4-3(B7)/ML2 IgG (antibody, V domains shown)
VH: B1 VH with D31S, R57I
VL: B1 VL with Y27Q, G31N, H87Y
notes: as for B1
B12: M4-3(C1)/ML2 IgG (antibody, V domains shown)
VH: B1 VH with D31S, R57S
VL: B1 VL with Y27Q, G31N, H87Y
notes: as for B1
B13: M4-3/ML2(E10) IgG (antibody, V domains shown)
VH: B1 VH with D31S, F54Y, R57S
VL: B1 VL
notes: as for B1
B14: M4-3/ML2(C5/G3) IgG (antibody, V domains shown)
VH: B1 VH with D31S, F54Y, R57S
VL: B1 VL with Y27R, G31E, S52G, H87Y, K93A
notes: as for B1
B15: M4-3(D6)/ML2 IgG (antibody, V domains shown)
VH: B1 VH with D31S, R57K
VL: B1 VL with Y27Q, G31N, H87Y
notes: as for B1
B16: M4-3(A7)/ML2 IgG (antibody, V domains shown)
VH: B1 VH
VL: B1 VL with Y27Q, G31N, H87Y
notes: as for B1
B17: MCSP TCB (2+1 Crossfab-IgG P329G LALA inverted) (bispecific antibody)
chain 1: not shown
chain 2: QAVVTQEPSLTVSPGGTVTLTCGSSTGAVTTSNYANWVQEKPGQAFRGLIGGTNKRAPGTPARFSGSLLGGKAALTLSGAQPEDEAEYYCALWYSNLWVFGGGTKLTVLSSASTKGPSVFPLAPSSKSTSGGTAALGCLVKDYFPEPVTVSWNSGALTSGVHTFPAVLQSSGLYSLSSVVTVPSSSLGTQTYICNVNHKPSNTKVDKKVEPKSC
chain 3: not shown
chain 4: QVQLQESGPGLVKPSQTLSLTCTVSGGSITSGYYWNWIRQHPGKGLEWIGYITFDGSNNYNPSLKSRVTISRDTSKNQFSLKLSSVTAADTAVYYCADFDYWGQGTLVTVSSASTKGPSVFPLAPSSKSTSGGTAALGCLVKDYFPEPVTVSWNSGALTSGVHTFPAVLQSSGLYSLSSVVTVPSSSLGTQTYICNVNHKPSNTKVDKKVEPKSCDKTHTCPPCPAPEAAGGPSVFLFPPKPKDTLMISRTPEVTCVVVDVSHEDPEVKFNWYVDGVEVHNAKTKPREEQYNSTYRVVSVLTVLHQDWLNGKEYKCKVSNKALGAPIEKTISKAKGQPREPQVCTLPPSRDELTKNQVSLSCAVKGFYPSDIAVEWESNGQPENNYKTTPPVLDSDGSFFLVSKLTVDKSRWQQGNVFSCSVMHEALHNHYTQKSLSLSPGK
notes: Two anti-MCSP Fabs M4-3(C1) ML2(G3), one anti-CD3 crossfab (humanized CH2527), Fc knob-into-hole with P329G LALA; the conventional light chain occurs twice (vector ratio 1:2:1:1); also called MCSP TCB antibody; MCSP CD3 bispecific antibody

T3 sequence (P07766 23-207): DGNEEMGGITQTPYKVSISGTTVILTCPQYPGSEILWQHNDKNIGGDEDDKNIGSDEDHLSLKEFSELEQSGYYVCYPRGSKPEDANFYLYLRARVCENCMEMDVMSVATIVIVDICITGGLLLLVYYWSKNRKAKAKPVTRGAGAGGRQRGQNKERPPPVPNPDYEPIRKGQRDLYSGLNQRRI

The first assay deals with T1, human MCSP(D3 domain)-avi-his (human, UniProt Q6UVK1 1582-2224).
T1 construct: Recombinant D3 domain of MCSP (CSPG4) with avi and his tags; also called hu-MCSP(D3 domain)-avi-his; human MCSP antigen
T1 sequence: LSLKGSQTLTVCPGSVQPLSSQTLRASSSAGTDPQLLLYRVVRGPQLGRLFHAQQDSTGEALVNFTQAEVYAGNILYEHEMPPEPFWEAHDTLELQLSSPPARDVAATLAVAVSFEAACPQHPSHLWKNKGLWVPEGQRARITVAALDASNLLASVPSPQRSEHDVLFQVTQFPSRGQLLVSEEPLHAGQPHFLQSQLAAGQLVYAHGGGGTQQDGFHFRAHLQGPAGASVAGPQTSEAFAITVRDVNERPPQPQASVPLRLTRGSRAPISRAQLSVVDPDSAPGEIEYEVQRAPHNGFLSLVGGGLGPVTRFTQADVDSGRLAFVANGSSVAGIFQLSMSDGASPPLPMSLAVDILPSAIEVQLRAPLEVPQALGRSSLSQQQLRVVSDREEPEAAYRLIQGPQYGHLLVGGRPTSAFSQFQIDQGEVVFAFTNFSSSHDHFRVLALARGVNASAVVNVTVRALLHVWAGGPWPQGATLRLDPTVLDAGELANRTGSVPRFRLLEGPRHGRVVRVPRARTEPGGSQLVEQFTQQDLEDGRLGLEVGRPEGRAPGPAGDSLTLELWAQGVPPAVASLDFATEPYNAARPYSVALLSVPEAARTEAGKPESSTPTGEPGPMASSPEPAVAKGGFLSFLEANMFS
Description: SPR ProteOn XPR36; parental M4-3/ML2 IgG KD against variant IgG KD.
Take B1: the “Fold increase over parent (IgG KD)” value was 6.7 fold.

As for B2, the “Fold increase over parent (IgG KD)” value amounted to 28.6 fold.

B3: the “Fold increase over parent (IgG KD)” value is 10 fold.

As for B4, the “Fold increase over parent (IgG KD)” value came to 5 fold.

B5: the “Fold increase over parent (IgG KD)” value turned out to be 6.7 fold.

Regarding B6, the “Fold increase over parent (IgG KD)” value worked out at 5 fold.

Turning to B7, the “Fold increase over parent (IgG KD)” value was determined as 28.6 fold.

In the case of B8, the “Fold increase over parent (IgG KD)” value came out at 28.6 fold.

As for B9, the “Fold increase over parent (IgG KD)” value turned out to be 4 fold.

With B10, the “Fold increase over parent (IgG KD)” value was 2.2 fold.

B11: the “Fold increase over parent (IgG KD)” value was determined as 4 fold.

B12: the “Fold increase over parent (IgG KD)” value was found to be 2.2 fold.

In the case of B13, the “Fold increase over parent (IgG KD)” value is 2 fold.

B14: the “Fold increase over parent (IgG KD)” value was 2.9 fold.

B15: the “Fold increase over parent (IgG KD)” value was 5 fold.

As to B16, the “Fold increase over parent (IgG KD)” value is 2.5 fold.

A further assay deals with T2, cynomolgus MCSP D3 (cynomolgus, UniProt Q6UVK1 1582-2224 (human entry), limits assumed).
T2 construct: Recombinant, captured through anti-Penta His in the avidity set-up; also called Cyno MCSP; cynomolgus homologue
T2 chain: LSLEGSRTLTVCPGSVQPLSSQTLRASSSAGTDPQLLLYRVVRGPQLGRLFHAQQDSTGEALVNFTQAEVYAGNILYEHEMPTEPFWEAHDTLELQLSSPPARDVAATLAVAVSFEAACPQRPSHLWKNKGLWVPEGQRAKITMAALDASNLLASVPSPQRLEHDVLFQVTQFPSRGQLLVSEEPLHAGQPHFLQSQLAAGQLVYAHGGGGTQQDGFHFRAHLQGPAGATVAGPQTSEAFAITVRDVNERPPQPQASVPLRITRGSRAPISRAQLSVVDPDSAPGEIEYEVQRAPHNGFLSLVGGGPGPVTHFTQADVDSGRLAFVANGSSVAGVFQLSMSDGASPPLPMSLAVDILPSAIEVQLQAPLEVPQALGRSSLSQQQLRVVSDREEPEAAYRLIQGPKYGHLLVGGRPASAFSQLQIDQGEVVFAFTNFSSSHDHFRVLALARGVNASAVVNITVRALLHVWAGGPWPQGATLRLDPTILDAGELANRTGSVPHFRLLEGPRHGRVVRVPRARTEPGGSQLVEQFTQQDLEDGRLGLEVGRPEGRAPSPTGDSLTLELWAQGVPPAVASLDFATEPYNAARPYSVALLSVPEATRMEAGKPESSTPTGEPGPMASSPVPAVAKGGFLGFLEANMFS
Described as above.
Turning to B1, the “Fold increase over parent (IgG KD)” value came to 2.9 fold.

For B2, the “Fold increase over parent (IgG KD)” value came out at 10 fold.

For B3, the “Fold increase over parent (IgG KD)” value was determined as 6.7 fold.

In the case of B4, the “Fold increase over parent (IgG KD)” value turned out to be 2 fold.

Consider B5, for which the “Fold increase over parent (IgG KD)” value is 3.3 fold.

Take B6: the “Fold increase over parent (IgG KD)” value came out at 2.2 fold.

Consider B7, for which the “Fold increase over parent (IgG KD)” value stood at 10 fold.

Consider B8, for which the “Fold increase over parent (IgG KD)” value is 10 fold.

In the case of B9, the “Fold increase over parent (IgG KD)” value was 3.3 fold.

In the case of B10, the “Fold increase over parent (IgG KD)” value is 2 fold.

As to B11, the “Fold increase over parent (IgG KD)” value worked out at 2.9 fold.

Turning to B12, the “Fold increase over parent (IgG KD)” value came to 2.5 fold.

As to B13, the “Fold increase over parent (IgG KD)” value was 1 fold.

Regarding B14, the “Fold increase over parent (IgG KD)” value amounted to 2 fold.

As for B15, the “Fold increase over parent (IgG KD)” value stood at 2 fold.

Take B16: the “Fold increase over parent (IgG KD)” value is 2 fold.

Another assay has as its target T3, human CD3 on Jurkat cells (Homo sapiens, UniProt P07766).
T3 construct: native, on the surface of the Jurkat human T cell line; also called CD3+ cells (Jurkat)
Nature of the assay: flow cytometry on Jurkat cells (CD3+), PE-conjugated anti-human IgG Fcγ secondary antibody, median fluorescence intensity. As to the method: Briefly, cells were harvested, counted, checked for viability and resuspended at 2×10⁶ cells/ml in FACS buffer (100 μl PBS 0.1% BSA).
On the technique in general: A flow cytometer gives signals particle by particle.
With B17, the binding result was “binds”.
